This note sets out measurements from paper PMC8808184 (2021).

The target in one test is T1, hCNTN5 (Homo sapiens (Human), UniProt O94779).
T1 chain: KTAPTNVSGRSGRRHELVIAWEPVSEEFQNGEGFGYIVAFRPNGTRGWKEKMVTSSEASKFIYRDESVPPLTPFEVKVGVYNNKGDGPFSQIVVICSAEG
The test can be described thus: BLI steady state, CNTN FN1-FN3 over biotinylated E1.

The target of another test is T2, hCNTN3 (Homo sapiens (Human), UniProt Q9P232).
T2 chain: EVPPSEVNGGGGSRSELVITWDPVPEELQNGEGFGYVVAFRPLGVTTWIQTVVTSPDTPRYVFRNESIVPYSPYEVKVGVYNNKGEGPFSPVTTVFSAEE
The test is described as above.

B1: hAPLP2 (protein)
chain: GEFVSDVLLVPEKCQFFHKERMEVCENHQHWHTVVKEACLTQGMTLYSYGMLLPCGVDQFHGTEYVCCPQ
On to B1, for which the Kd (usually the concentration at which binding is half-saturated) with hCNTN5 turned out to be 38.6 µM.

B2: hAPLP1 (protein)
chain: GEFVSEALLVPEGCRFLHQERMDQCESSTRRHQEAQEACSSQGLILHGSGMLLPCGSDRFRGVEYVCCPP
As to B2, the figures for the Kd with hCNTN3 and with hCNTN5 were 9.1 µM and 10.9 µM, respectively.
